Results: the DeepSol protein solubility set

Assay: soluble on expression in E. coli; label from the status in PepcDB or PDB records

Sequence | soluble on expression in E. coli
MADTSCKLKPLCFRFVSTLKSPIAVITVTYSPGKYLASFLDSLPGATSRDTHVVMADNGSVDGVPEQAAASRSNVEFLSTGGNLGYGTAINIAARSLRARREAGEIDGEFFLVSNPDVVFDEDSIDQLLECAKRHPEAGAVGPLIREADGSAYPSARAVPTLANGIGHALLGAVWKSNPWSAAYRDDEDMDTERTAGWLSGSCLLLRWDAFDRVGGFDERYFMYMEDVDLGDRLVRAGFTNVFCPSAQIIHAKGHVAGKNPENMLPAHHESAYRFQADRLAKPWQAPIRLALRIGLKLRAGVAVGVSKMRTKASLEHHHHHH | not soluble
QRSTFGTKHMVFRTDQLIDGIERNVRITSEEVNAALPVPLLDRQDPGAILISGSSYTEPSEALQTMREAMTQEKFSGSVEIPLGIVRALLDLGFTDEAASWLEDLVPRLGNEWRHQWYSGVTSLLLDDYLTAQQHFNEVYNILPGESAPKLARAAVCEMLLQEKGLESTALLDPAVTVAAADIKGEGMSNIWRELTSDPATLRFKAIYLYALVWRTNPTTVSSAFGLARQLAAENQIDLAVSTLDRVPQNSTHRRMAELTAILHLLGDLSEARLRRAARRLEAIPTNEPRFLQIQIAIMNAALQWLRTGGEAANDPIFEYPFTQRGLRNGLSATLRQLARSAPSSHRYALVDVANQVRPMTWF | not soluble
QQEYMKVGKFSPESNRSRWLVTRGATMTTKDTTRNMTMNTNLGGYQVLEIFRKLETPEAVTAFEGLSIPEPGLEPRFCVREGEQEVPVTTRYTDEAFWQVFDFSFVAGKHYTEADARSNIAVAVITDRLARRFFGSSSEAVGRQALINGRKYTVCGVVRHVTPFCDFAYGDVWMPVFRLYEERVKNNLFSRFNVICLAKSPKDFDAIKEEVGALTAKCNSVQEKFNISFPGQPADQFTTMHRKFHRDDTEPLEYRRR | not soluble
MAHHHHHHMDKISPEILAARAKLKEKMGGNLRQIGGKGSARRKIKKVHKNSMSNEKKINLILKKIGASYFGDVDEICVYKAGDTYMEFKRPKLSASLQSNTYVVTGKFTEQKIDINKIFEGLKGNKNVDMNLLEKIKNDPNIKNLLNKENNGNAKKEEGAQEAADVPDLVENFEEVSKEEQK | soluble
NSPITIGLALNKKLNNHWSIETGLQYIYLKSEFTTGKEYRIQKTQKLHYIGIPLRISYRFGNYKQFSFYSTAGLQMEIPIKGTLHTSHVTDSVPINLGYQSLDVPLQWSINASTGVQYHFTPHTSIYIEPTINYYIPDGSSLRTIRKEHPVTFSVPVGIRFSW | not soluble
MGSDKIHHHHHHMRTLFSQQQWIDMKVLVTGATSGLGRNAVEFLCQKGISVRATGRNEAMGKLLEKMGAEFVPADLTELVSSQAKVMLAGIDTLWHCSSFTSPWGTQQAFDLANVRATRRLGEWAVAWGVRNFIHISSPSLYFDYHHHRDIKEDFRPHRFANEFARSKAASEEVINMLSQANPQTRFTILRPQSLFGPHDKVFIPRLAHMMHHYGSILLPHGGSALVDMTYYENAVHAMWLASQEACDKLPSGRVYNITNGEHRTLRSIVQKLIDELNIDCRIRSVPYPMLDMIARSMERLGRKSAKEPPLTHYGVSKLNFDFTLDITRAQEELGYQPVITLDEGIEKTAAWLRDHGKLPR | not soluble
MDTAGIRLTPKEIVSKLNEYIVGQNDAKRKVAIALRNRYRRSLLDEESKQEISPKNILMIGPTGVGKTEIARRMAKVVGAPFIKVEATKFTEVGYVGRDVESMVRDLVDVSVRLVKAQKKSLVQDEATAKANEKLVKLLVPSMKKKASQTNNPLESLFGGAIPNFGQNNEDEEEPPTEEIKTKRSEIKRQLEEGKLEKEKVRIKVEQDPGALGMLGTNQNQQMQEMMNQLMPKKKVEREVAVETARKILADSYADELIDQESANQEALELAEQMGIIFIDEIDKVATNNHNSGQDVSRQGVQRDILPILEGSVIQTKYGTVNTEHMLFIGAGAFHVSKPSDLIPELQGRFPIRVELDSLSVEDFVRILTEPKLSLIKQYEALLQTEEVTVNFTDEAITRLAEIAYQVNQDTDNIGARRLHTILEKMLEDLSFEAPSMPNAVVDITPQYVDDKLKSISTNKDLSAFIL | not soluble
MSKADENDANLTENGVHKSRSDSEINSHTSSIHKSSSQHRRLFIDDISTIEASAGDRVWATCSGAGDATELITIHFLGDQFEESAIDVVRKHSLVMFTVPSLKVDSELEVELRFSTSNDNVTTISFKYLPRKIQRSHTQEISLFDNLLEFATNGDTISLLQPFVAQISKQDIEGNTVFHVAAKNGQSFSLKLLLSVIPPDIKNEVINVQNTHGLTALHVAIRTGDPDAVHYLMNHGAKIDISDNHGSTALHYLGDAYNESIFKEILEPSRGQRFDVNQLNSEGFAPIHVAVRRLKLSLIEMLIEAGALIDFLDTEKKRNALMHAIEMNDFETIQLLVERGSGTNIEDESGETALSLAVKNVNYPVIGLLLDNGADPNRQNSKGICLADSEDSVIQNIINGDRPELPKKEAFGVPNDLAISRSPLFGRSHPDQAPGEESGRHRVVKRSREEILNDAQTLLAETDSMAPRVSRISTSESEDEQQPGPSTSSGTRRRRSEWDRNPKLSDSVCNLDYLTRIRVAKIFDDQCKWQRLAQQLNCDHMVELISICSSGDDSSPTMILLDQFEQLEDSSISRLRDAMNQMAEDDAVKLIDSRYVY | not soluble
MGSDKIHHHHHHMWQFPLFETILIEQGQAKNISYHQQRYEKSLLKFYPKMKLQPFDLAKIIAKHTALFTHREGLIRCRIDYNHHDYVLQCFPYQQKVYRTFKPVFCDHIDYSLKFSDRTLLNNLLKQKEECDEIMIIRQGKVTDCSIGNLIFRQNNQWITPDKPLLEGTQRAKLLEQKKIIAREIFFEDLAQYEEIRLINAMNGL | not soluble
MAHHHHHHMVLRPRPLKHSLLRRGRINPAATHREVSLPILLTLVTCPIPRPMQVDRSLWAEGPLQAQHPHSPTHLSRQQVECMLLAGVPPRAFRLQDKPSKVSETAKEAPQGDEEGEPRAQHEADHTTKGGGDDFLDKNGNEKREPPAGSQTAPLPDGGKNAHYYFFLLLPARPATRCHLSADEVVEQRQKFSAMKQLPLGELSVTEVLLNAQPLAHSQGAWTS | not soluble
MKKIRLAVIGTGMAWERLHYPAIKELEDKYEIVALCNRTRKDAEEFAKKINLSMDRVYDDYNEMLKRQDIDAVDILVPIESNYTVSEAVAKAGKDFICEKPLAANREEAKKYLELSKKYNVRIMIAENYRYSDEYNKIRDIVNSGKIGDVVYFIKNNISCFPCEMTKDTFAATEWRQHPKFYGGAFLDAAVHDIAAMRHIFGAVECVQAFGKPQAEDFNPYVSVNAHILFKNGVIGYYTYYPSGIETQKPAVGFRIFGTKGEIYLEDKTCGIINVSYHDGTSELVNFIPERGFYNELLNYYNAINGTEQISVTPEMEYGDVKMVFDILDSVSFREIIYVDEEEPKRRLEIADDEAKIHPFLQ | not soluble
MSGSSHYPVANWNLDGIVSGLRGARQEWRGPRGRLREESESGVREFPSQESLRDIMRQLFGALFPMRLGPIDLREEVEDFYVGHTIGAALDALLHQVCLELQHLGRDDPQPYGQVLERAVDIVRRFGAELPAVRKALDLDVTAAYQGDPAARSVDEVLLCYPGVTAMIHHRLANVLYRLGAPMLARIVAEIAHSDTGIDIHPGATIGRSFFIDHGTGVVIGETAIIGERVRLYQMVTLGAKRFPPGENGELKKGLPRHPIIEDDVVIYAGATILGRITIGQGSTIGGNVWLTHSVPPNSTVTQAGAINDMPDCGLGGLEHHHHHH | not soluble
MAPPNGTTNGETEVATQGSYTAVSTGRKTTMHRLIEEHGSVLMPGVQDALSAAVVEKTGFHAAFVSGYSVSAAMLGLPDFGLLTTTEVVEATRRITAAAPNLCVVVDGDTGGGGPLNVQRFIRELISAGAKGVFLEDQVWPKKCGHMRGKAVVPAEEHALKIAAAREAIGDSDFFLVARTDARAPHGLEEGIRRANLYKEAGADATFVEAPANVDELKEVSAKTKGLRIANMIEGGKTPLHTPEEFKEMGFHLIAHSLTAVYATARALVNIMKILKEKGTTRDDLDQMATFSEFNELISLESWYEMESKFKNFTPKAT | soluble
